From patent US20120316071A1 (published 2012)
Each block holds one binder with its values, some of them ahead of it.

Assays:
[1] = molecular target: T1, rHuman P-Cadherin/Fc Chimera, CF (R&D Systems Cat#861-PC) (human, UniProt P22223 108-654); assay: MSD multispot ECL, antigen spotted on plate, Fab in solution; blank spot of this row 237
T1 construct: Bought recombinant protein; Fc part of the bought chimera not given

[2] = molecular target: T2, rHuman HGF R/c-MET/Fc Chimera, CF (R&D Systems Cat#358-MT/CF) (human, UniProt P08581 25-932); assay: as above
T2 construct: Bought recombinant protein; also called HGF R/Fc; Fc part of the bought chimera not given

[3] = molecular target: T3, rHuman IGF-1 sR (insulin-like growth factor-1 soluble receptor), CF (R&D Systems Cat#391-GR) (human, UniProt P08069 31-932); assay: as above
T3 construct: Bought recombinant soluble receptor; The column head prints only 'IGF-1'

[4] = molecular target: T4, rHuman ErbB2/Fc Chimera, CF (R&D Systems Cat#1129-ER) (human, UniProt P04626 23-652); assay: as above
T4 construct: Bought recombinant protein; Fc part of the bought chimera not given

[5] = molecular target: T5, Recombinant Human DLL4 (R&D Systems Cat#1506-D4/CF) (human, UniProt Q9NR61 27-524); assay: as above
T5 construct: Bought recombinant protein; also called delta-like protein 4; rHuman DLL4

[6] = molecular target: T6, rHuman CD44/Fc Chimera, CF (R&D Systems Cat#3660-CD) (human, UniProt P16070 21-220); assay: as above
T6 construct: Bought recombinant protein; Fc part of the bought chimera not given

[7] = molecular target: T7, rHuman Notch-1/Fc Chimera, CF (R&D Systems Cat#3647-TK) (human, UniProt P46531 19-526); assay: as above
T7 construct: Bought recombinant protein; Fc part of the bought chimera not given

[8] = molecular target: T8, rHuman EGF R/Fc Chimera, CF (R&D Systems Cat#344-ER) (human, UniProt P00533 25-645); assay: as above
T8 construct: Bought recombinant protein; Fc part of the bought chimera not given

[9] = molecular target: T9, rHuman Erythropoietin R/Fc Chimera, CF (R&D Systems Cat#963-ER) (human, UniProt P19235 25-250); assay: as above
T9 construct: Bought recombinant protein; also called EPO R; Epo R/Fc; Fc part of the bought chimera not given
T9 sequence (looked up): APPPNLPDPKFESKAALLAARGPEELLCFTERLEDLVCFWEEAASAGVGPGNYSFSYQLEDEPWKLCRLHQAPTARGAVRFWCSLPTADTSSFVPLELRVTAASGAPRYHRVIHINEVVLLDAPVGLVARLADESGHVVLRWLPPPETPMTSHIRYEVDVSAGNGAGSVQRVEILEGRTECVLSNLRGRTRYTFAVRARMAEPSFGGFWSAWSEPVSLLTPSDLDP

[10] = molecular target: T1, rHuman P-Cadherin/Fc Chimera, CF (R&D …); assay: MSD multispot ECL, antigen spotted on plate, Fab in solution; blank spot of this row 258
[11] = molecular target: T2, rHuman HGF R/c-MET/Fc Chimera, CF (R&D …); assay: as above
[12] = molecular target: T3, rHuman IGF-1 sR (insulin-like growth …); assay: as above
[13] = molecular target: T4, rHuman ErbB2/Fc Chimera, CF (R&D …); assay: as above
[14] = molecular target: T5, Recombinant Human DLL4 (R&D Systems …); assay: as above
[15] = molecular target: T6, rHuman CD44/Fc Chimera, CF (R&D Systems …); assay: as above
[16] = molecular target: T7, rHuman Notch-1/Fc Chimera, CF (R&D …); assay: as above
[17] = molecular target: T8, rHuman EGF R/Fc Chimera, CF (R&D …); assay: as above
[18] = molecular target: T9, rHuman Erythropoietin R/Fc Chimera, CF …; assay: as above
[19] = molecular target: T1, rHuman P-Cadherin/Fc Chimera, CF (R&D …); assay: MSD multispot ECL, antigen spotted on plate, Fab in solution; blank spot of this row 440
[20] = molecular target: T2, rHuman HGF R/c-MET/Fc Chimera, CF (R&D …); assay: as above
[21] = molecular target: T3, rHuman IGF-1 sR (insulin-like growth …); assay: as above
[22] = molecular target: T4, rHuman ErbB2/Fc Chimera, CF (R&D …); assay: as above
[23] = molecular target: T5, Recombinant Human DLL4 (R&D Systems …); assay: as above
[24] = molecular target: T6, rHuman CD44/Fc Chimera, CF (R&D Systems …); assay: as above
[25] = molecular target: T7, rHuman Notch-1/Fc Chimera, CF (R&D …); assay: as above
[26] = molecular target: T8, rHuman EGF R/Fc Chimera, CF (R&D …); assay: as above
[27] = molecular target: T9, rHuman Erythropoietin R/Fc Chimera, CF …; assay: as above
[28] = molecular target: T1, rHuman P-Cadherin/Fc Chimera, CF (R&D …); assay: MSD multispot ECL, antigen spotted on plate, Fab in solution; blank spot of this row 298
[29] = molecular target: T2, rHuman HGF R/c-MET/Fc Chimera, CF (R&D …); assay: as above
[30] = molecular target: T3, rHuman IGF-1 sR (insulin-like growth …); assay: as above
[31] = molecular target: T4, rHuman ErbB2/Fc Chimera, CF (R&D …); assay: as above
[32] = molecular target: T5, Recombinant Human DLL4 (R&D Systems …); assay: as above
[33] = molecular target: T6, rHuman CD44/Fc Chimera, CF (R&D Systems …); assay: as above
[34] = molecular target: T7, rHuman Notch-1/Fc Chimera, CF (R&D …); assay: as above
[35] = molecular target: T8, rHuman EGF R/Fc Chimera, CF (R&D …); assay: as above
[36] = molecular target: T9, rHuman Erythropoietin R/Fc Chimera, CF …; assay: as above

T2 sequence (P08581 25-932, change not shown): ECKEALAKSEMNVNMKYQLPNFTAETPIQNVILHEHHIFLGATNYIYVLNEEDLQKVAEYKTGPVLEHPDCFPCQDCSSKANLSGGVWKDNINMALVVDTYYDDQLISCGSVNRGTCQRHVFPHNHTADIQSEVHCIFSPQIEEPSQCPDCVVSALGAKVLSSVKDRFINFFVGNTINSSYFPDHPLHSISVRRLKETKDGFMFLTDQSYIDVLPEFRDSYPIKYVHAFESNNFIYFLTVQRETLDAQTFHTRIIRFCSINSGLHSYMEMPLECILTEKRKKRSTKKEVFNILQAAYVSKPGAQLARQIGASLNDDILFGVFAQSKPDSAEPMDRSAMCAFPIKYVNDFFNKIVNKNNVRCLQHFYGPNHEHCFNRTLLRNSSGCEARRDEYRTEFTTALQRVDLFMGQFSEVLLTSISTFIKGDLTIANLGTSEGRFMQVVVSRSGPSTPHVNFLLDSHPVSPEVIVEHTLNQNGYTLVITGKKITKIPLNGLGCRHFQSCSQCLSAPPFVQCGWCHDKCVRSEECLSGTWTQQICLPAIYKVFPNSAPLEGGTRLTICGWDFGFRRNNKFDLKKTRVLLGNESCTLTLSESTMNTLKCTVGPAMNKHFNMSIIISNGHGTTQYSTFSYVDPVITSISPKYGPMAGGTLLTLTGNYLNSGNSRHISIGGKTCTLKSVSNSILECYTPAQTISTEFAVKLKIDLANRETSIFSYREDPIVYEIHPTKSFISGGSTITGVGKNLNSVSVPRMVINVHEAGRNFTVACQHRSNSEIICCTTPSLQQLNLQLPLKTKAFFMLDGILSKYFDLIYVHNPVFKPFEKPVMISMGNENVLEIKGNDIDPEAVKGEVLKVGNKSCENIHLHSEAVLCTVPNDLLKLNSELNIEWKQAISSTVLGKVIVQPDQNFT

ECL signal [1]: 338
ECL signal [2]: 228
ECL signal [3]: 336
ECL signal [4]: 277
ECL signal [5]: 51600
ECL signal [6]: 439
ECL signal [7]: 313
ECL signal [8]: 266
ECL signal [9]: 440
B1: Fab VH1-46_IGHD6-6*01_IGHJ1*01 S102A/S103P/S104F/H111F (H:APFF) & L6_IGKJ1*01 S76E (Fab, V domains shown)
VH: QVQLVQSGAEVKKPGASVKVSCKASGYTFTSYYMHWVRQAPGQGLEWMGIINPSGGSTSYAQKFQGRVTMTRDTSTSTVYMELSSLRSEDTAVYYCAREEYAPFSAEYFQFWGQGTLVTVSS
VL: EIVLTQSPATLSLSPGERATLSCRASQSVSSYLAWYQQKPGQAPRLLIYDASNRATGIPARFSGSGSGTDFTLTIESLEPEDFAVYYCQQRSNWPPWTFGQGTKVEIKR
notes: Fab expressed in E. coli from plasmid A (heavy chain CH1, His6 and Flag tags) and plasmid C (kappa CL)

ECL signal [10]: 364
ECL signal [11]: 386
ECL signal [12]: 188
ECL signal [13]: 264
ECL signal [14]: 48300
ECL signal [15]: 287
ECL signal [16]: 255
ECL signal [17]: 324
ECL signal [18]: 430
B2: Fab VH1-46_IGHD6-6*01_IGHJ1*01 S102A/S103P/S104F/H111F (H:APFF) & L6_IGKJ1*01 S76Q (Fab, V domains shown)
VH: QVQLVQSGAEVKKPGASVKVSCKASGYTFTSYYMHWVRQAPGQGLEWMGIINPSGGSTSYAQKFQGRVTMTRDTSTSTVYMELSSLRSEDTAVYYCAREEYAPFSAEYFQFWGQGTLVTVSS
VL: EIVLTQSPATLSLSPGERATLSCRASQSVSSYLAWYQQKPGQAPRLLIYDASNRATGIPARFSGSGSGTDFTLTIQSLEPEDFAVYYCQQRSNWPPWTFGQGTKVEIKR
notes: as for B1

ECL signal [19]: 329
ECL signal [20]: 429
ECL signal [21]: 378
ECL signal [22]: 436
ECL signal [23]: 52000
ECL signal [24]: 369
ECL signal [25]: 298
ECL signal [26]: 385
ECL signal [27]: 384
B3: Fab VH1-46_IGHD6-6*01_IGHJ1*01 S102A/S103P/S104F/H111F (H:APFF) & L6_IGKJ1*01 S76N (Fab, V domains shown)
VH: QVQLVQSGAEVKKPGASVKVSCKASGYTFTSYYMHWVRQAPGQGLEWMGIINPSGGSTSYAQKFQGRVTMTRDTSTSTVYMELSSLRSEDTAVYYCAREEYAPFSAEYFQFWGQGTLVTVSS
VL: EIVLTQSPATLSLSPGERATLSCRASQSVSSYLAWYQQKPGQAPRLLIYDASNRATGIPARFSGSGSGTDFTLTINSLEPEDFAVYYCQQRSNWPPWTFGQGTKVEIKR
notes: as for B1

ECL signal [28]: 271
ECL signal [29]: 394
ECL signal [30]: 347
ECL signal [31]: 260
ECL signal [32]: 29800
ECL signal [33]: 313
ECL signal [34]: 402
ECL signal [35]: 331
ECL signal [36]: 371
B4: Fab VH1-46_IGHD6-6*01_IGHJ1*01 S102A/S103P/S104F/H111F (H:APFF) & L6_IGKJ1*01 S76P (Fab, V domains shown)
VH: QVQLVQSGAEVKKPGASVKVSCKASGYTFTSYYMHWVRQAPGQGLEWMGIINPSGGSTSYAQKFQGRVTMTRDTSTSTVYMELSSLRSEDTAVYYCAREEYAPFSAEYFQFWGQGTLVTVSS
VL: EIVLTQSPATLSLSPGERATLSCRASQSVSSYLAWYQQKPGQAPRLLIYDASNRATGIPARFSGSGSGTDFTLTIPSLEPEDFAVYYCQQRSNWPPWTFGQGTKVEIKR
notes: as for B1
